# Data: patent EP4414386A1 (dated 2024)
# Biological target: T1, PSMA antigen (UniProt Q04609 1-750, limits assumed)
# T1 construct: whole, on cells; On PC3-PIP cells in FACS and cell ELISA; in SPR captured on the CM5 chip from the cellular lysate of PC3-PIP by the 7E11 MAb; also called the antigen
# Assay: SPR Biacore T200, single-cycle kinetics; PSMA captured from PC3-PIP lysate by 7E11 on CM5 chip
# T1 sequence (Q04609 whole entry): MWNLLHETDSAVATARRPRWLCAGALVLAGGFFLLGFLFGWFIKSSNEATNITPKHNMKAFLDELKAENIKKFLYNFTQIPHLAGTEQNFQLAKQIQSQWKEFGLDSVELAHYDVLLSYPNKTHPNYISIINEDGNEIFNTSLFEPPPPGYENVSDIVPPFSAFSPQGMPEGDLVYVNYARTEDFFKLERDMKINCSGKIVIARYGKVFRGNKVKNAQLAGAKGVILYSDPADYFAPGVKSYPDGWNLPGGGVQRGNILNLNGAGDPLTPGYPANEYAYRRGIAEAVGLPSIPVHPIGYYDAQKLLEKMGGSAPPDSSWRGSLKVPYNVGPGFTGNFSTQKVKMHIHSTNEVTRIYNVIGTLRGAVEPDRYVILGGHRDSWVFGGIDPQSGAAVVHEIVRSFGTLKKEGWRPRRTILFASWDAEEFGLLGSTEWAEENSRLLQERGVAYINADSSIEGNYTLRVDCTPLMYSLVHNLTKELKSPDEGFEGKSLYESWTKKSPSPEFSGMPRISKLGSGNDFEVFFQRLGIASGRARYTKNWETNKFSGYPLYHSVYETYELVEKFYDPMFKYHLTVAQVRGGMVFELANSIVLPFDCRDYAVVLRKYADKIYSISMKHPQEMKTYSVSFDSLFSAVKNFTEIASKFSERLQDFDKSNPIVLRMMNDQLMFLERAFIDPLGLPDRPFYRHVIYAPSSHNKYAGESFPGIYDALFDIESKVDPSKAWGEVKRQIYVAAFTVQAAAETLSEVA
Binder,Kd [nM],RU max [RU]
"scFv D2B produced in prokaryotic system (bacteria) (scFv, also called ScFvD2B from bacteria; scFv produced in bacteria; not shown: Myc tag) scFv: EVKLQESGPGLVKPSQSLSLTCSVTGYSITSGYYWNWIRQFPGNKLEWMGSISFDGNNNYNPSLRNRISITRDTSKNQFFLKLNSVTTEDTATYYCAREGDYYGSSFFTYWGQGTLVTVSSGGGGSGGGGSGGGGSALDIVMTQSPASLSASVGETVTLTCGASENIYGALNWYQRKQGKSPQLLIYGATNLADGMSSRFSGSGSGRQYSLKISSLHPDDVATYYCQNVFRTYTFGGGTKLEIKRAAAHHHHHH",2.3,34
"scFv D2B produced by synthesis (folded scFv D2B compound 27) (scFv, pyroglutamic acid (<E) at position 1, Fully chemically synthesised, 254 residues, two disulfide bonds (C22-C96 and C161-C226); segment 5 is C226-H254; also called ScFvD2B of synthesis; scFv produced by synthesis) scFv: EVKLQESGPGLVKPSQSLSLTCSVTGYSITSGYYWNWIRQFPGNKLEWMGSISFDGNNNYNPSLRNRISITRDTSKNQFFLKLNSVTTEDTATYYCAREGDYYGSSFFTYWGQGTLVTVSSGGGGSGGGGSGGGGSALDIVMTQSPASLSASVGETVTLTCGASENIYGALNWYQRKQGKSPQLLIYGATNLADGMSSRFSGSGSGRQYSLKISSLHPDDVATYYCQNVFRTYTFGGGTKLEIKRAAAHHHHHH",1.9,34
"scFv D2B produced in eukaryotic mammalian cells (scFv, also called ScFvD2B from eukaryote; scFv produced in eukaryotic mammalian cells) scFv: EVKLQESGPGLVKPSQSLSLTCSVTGYSITSGYYWNWIRQFPGNKLEWMGSISFDGNNNYNPSLRNRISITRDTSKNQFFLKLNSVTTEDTATYYCAREGDYYGSSFFTYWGQGTLVTVSSGGGGSGGGGSGGGGSALDIVMTQSPASLSASVGETVTLTCGASENIYGALNWYQRKQGKSPQLLIYGATNLADGMSSRFSGSGSGRQYSLKISSLHPDDVATYYCQNVFRTYTFGGGTKLEIKRAAAHHHHHH",2.8,68
